Test results as given in patent US20110287036A1, “NOVEL CANCER TARGETING THERAPY USING COMPLEX OF SUBTANCE CAPABLE OF BINDING SPECIFICALLY TO CONSTITUENT FACTOR OF CANCER STROMA AND ANTI-TUMOR COMPOUND” (RIKEN, priority 2008, published 2011).

System: PSN1 or SUIT2
Assay: In vivo imaging of IRDye800-labeled antibodies in tumor-bearing mice
Set-up: species or system BALB/c nude mouse
Details: imaged 1, 3, 7 and 14 days after administration
Experimental: PSN1 or SUIT2 was transplanted to the back of each BALB/c nude mouse (female, 6-week-old); 10 days after the transplantation, each antibody (labeled with IRDye800 (Li-Cor)) was administered from a tail vein of the mouse. 1 day, 3 days, 7 days, and 14 days after the administration, the antibody distribution was analyzed using the in vivo imaging apparatus OV110 (Olympus).
In the figure, CD20 stands for the antihuman CD20 antibody, EpCAM for the antihuman EpCAM antibody, and Col. 4 for the antimouse type IV collagen antibody.

antihuman CD20 antibody: monoclonal antibody against human B cells, does not react with SUIT2; control
accumulation in tumor tissue (IRDye800-labeled antibody via tail vein 10 days after transplantation): accumulated selectively in tumor tissue due to an EPR effect | duration of stay in / disappearance from tumor tissue (IRDye800-labeled antibody via tail vein): disappeared from the tumor tissue earlier than the antimouse type IV collagen antibody
